Drawing on a protein production outcome set (Wang et al. 2014), this text covers protein production for 20 sequences.

This series can be described thus: label from the status in PepcDB records.
As to “MKDNPISPTIPLDQDGVHHGFLKLPYSRDDSAWGSVMIPITVIQNGAGKTALLTGANHGDEYEGPVALQELAATTRAEDVTGRLIIVPYFNYPAFRASARTSPIDRGNLNRAFPGRPDGTVTQKIADYFQRTLLPMADVAVDFHSGGKTLDFVPFAAAHILEDKVLQDACFAAMQAFNAPYSVQLLEIDSEGMYDTAVEEMGKVLVTTELGGGGMSTARSNAIAKKGLRNVLIHFGILQGEMQIDPSVTLDMPDGDCYLFSEHDGLFEIMIDLGEPVQEGDLVARVWSPDRTGEAPVEYRARRSGVLISRHFPGMIKSGDCAAVIGVVEG”, the protein production result was “not failed”.

“MAPDQQVPATALGKSSRISLDGRRSERSVILADGSMHSLTLLHPGVYTLSSEVAETIRVLSGMAYYHAEGANDVQELHAGDSMVIPANQSYRLEVMEPLDYLLSS”: the protein production result is recorded as “not failed”. Regarding “MFSNQYIQQRIHKANSLREEGKNPYQNGLKRSLTNAAFLEKYAYVKGLEEPKDKEKCESIVGRVKLLRLMGKACFIKVEDESTILQVYVSQNELNDEFKSLKKHLEVGDIVLVKGFPFATKTGELSIHALEFHILSKTIVPLPEKFHGLSDIELRYRQRYLDLIVNPSVKDVFKKRSLIVSSVRKFFEMEGFLEVETPMMHPIPGGANARPFITYHNALEVERYLRIAPELYLKRLIVGGFEAVFEINRNFRNEGMDHSHNPEFTMIEFYWAYHTYEDLIELSKRLFDYLLKTLNLDSKIIYNDMEVDFNQTSVISYLDALETIGGISKDILEKEDRLLAYLLEQGIKVEPNLTYGKLLAEAFDHFVEHQLINPTFVTQYPIEISPLARRNDSNPNIADRFELFIAGKEIANGFSELNDPLDQLERFKNQVAEKEKGDEEAQYMDEDYVWALAHGMPPTAGQGIGIDRLVMLLTGAKSIKDVILFPAMRPVKNDFNVESEE”, the protein production result is on record as “failed”. The value for “MSSSLDLAPELSVASTHPASTLAGHQPDLVLSPRLHNRDLAPTRMEGRRWGGYSIFALWTNDVHNIANYSFAMGLFALGLGGWQILLSLAIGAALVYFFMNLSGYMGQKTGVPFPVISRIAFGIHGAQIPALIRAVIAIAWFGIQTYLASVVLRVLLTAVWPQIAAYDHDSILGLSSLGWVCFVSIWLVQLVILAYGMEMVRRYEAFAGPVILLTVAALAVFMYFKADARIAWSVATPLTGYEMWRNIFAGGALWLAIYGTLVLNFCDFARSSPCRKTIRVGNFWGLPVNILVFAVITVVLCGAQFQINGQIIDSPTQIVAAIPSTPFLVLGCLAFLIVTVAVNIMANFVAPAFVLSNLAPRHLNFRRAGLISATLAVLILPWNLYNSPLVIVYFLSGLGALLGPLYGVIMSDYWLLRKGCINVPELYTEHPAGAYHYSKGINLRAVAAFVPAALLAIVLALVPNFQGIAPFSWLIGAGIAAALYLLIAPRNRHYHDVSGECIAVDHSGH” was “failed”. Regarding “MYLAEALAQRVEAQRRYSELNQLLLDVAKVQEGDQPAENPHEILTELEELTTRINDLVRRINRTNSVTEFSEGMTLADALSVRDALLKKRTLYSDLADQLTSRQDRYSRSEIKYVATMDAREIRKKADLAAKEYRQLDVDIQRLNWQTELQ”, the protein production result is “failed”. Regarding “QPSRFLLKVLAGANIGAEFHLDSGKTYIVGSDPQVADIVLSDMSISRQHAKIIIGNDNSVLIEDLGSKNGVIVEGRKIEHQSTLSANQVVALGTTLFLLVDYAAPS”, the protein production entry was “not failed”. Regarding “RIVSTLNERLAGLTLHEIRDTYEERLDDLPDETGLIALVLDEASILFSEPDEGRLQFDGTQNILSQPEFQEPDDMRHLIETIEDEDRIVQVIENLFEANPDAVGQAVVRIGSETDQEEMDAYSIVLSPYQLGDTVGSLGVIGPKRMDYGRAVALVENMAAVVNRPADDETTD”, the protein production result is recorded as “failed”. Take “MEKFQENNILEDKKVCINENEEAWNKETYNAWIKRFGTAKEAAEKIKSMPEKKLNVLLDKFGDVKGKKIFNLMGSNGNKAVALALLGADVTVVDFSEGNRRYALDLAEACGVKINFILSDVLRMPKEVMSGDYDIVFAEMGILHYFSDLSPFMNVIHSLLKDGGKAVLRDFHPVSTKLITSRGSTAKVRKHKVTGDYFDTSLEEKEVAYSKYLEEGEVEKVFLRKWNLGEIVTAVANTGLKIESLTEEPNLSSDVFDKGIPKTFTIVARK”: the protein production result is on record as “failed”.

“MRVMRICLVGLGAVGQGFLRAVQMKGEYLRERYGLDIRFTGVADSSGALHDPDGLDIRGVLEHKKRAGLGSHPSGYEGMTGDELLDEAEYDCLVEATPTNIEDGEPGRSLVLKAMGDGKHVVTSNKGHLALFYSELMEAASEAGVEFMFEASVGGAMPIINLARETLASCTIESVIGILNGTTNFILSRMASEGSSYRQALIEAQELGIAETNPAQDVEGTDAACKAVIIANSILGRPCTLRDVRVEGITGITQGAIELAAQEGYLIKLIAEISGDRLEVGPRLVRMGSPYAVDGTLNMATLRTDLAGEVTAVGRGAGSLETASAMLTDTITIWRKSGGR”: the protein production result is given as “failed”. Regarding “MKAEFEEASGLTAGNPVRMKGVNVGSVESIRLNQETQTVRARLRIEEGIRIPEGSHAKVAGFSGIGGVRISILPGPRENPPLPPDATLSAPPEGSVFDRLTDQAPALANKADSVLTSTNTTMSALSTQLQDPDSDLRQALTSAKNITGDLESVTEAEKETLRALLQNLQSVSSDLDTFMGENGDSLDVAVRRLNESLDRLNRGLASLEQTSATLDTVATKLNEGDGTAGRLLNDPSLYLRLDSAAARTNTLLQDFQRDPGRYLNDMTLVKVF”, the protein production result was “failed”. Turning to “MRGDDMHIYELVSRDRTHPVRIYLLHSEYWTEDEFYNLLLEAFQRSSASDWHLQILEVSKYLVTAHGFVEAGGLQEIGFPGELSKTEVRRRINAFLGKDRSD”, the protein production result is reported as “not failed”. With “MTRAPSGGTEAPPGRTARRAGWDGRCQAAGHRSRRGGLSTGGDEVSTSDSDDAGLRSFLADPAHLTLDLRTATARCVKALGLRHAVVYLVDLQQRHLVPQTAVAPSVPVDGSPAGWAYRTQSLRVEESGTGGGITAWFPLLDGAERLGVLALCETALTASSLTRGRALASLLAMVITSKRLYEDSFVRRTRTERMTLPAEMLRALLPPRTIGNGNVVSTAVLEPAYEIGGDAFDHALTETTLHVAVLDAMGHDLASGLTTTVSLAACRNARRTGADLPELVRSVDEALSSWLPDKFCTSVIAQLDLVTGVLRWANCGHPAPILIRDQRLVIDAMERDADPPMGMPSLLSPHARRTHEISLEPGDRVLMYTDGVVEARTREAKLLGLERFADYVIRATAGGELAPESLRRLIHSILAMQEGRLRDDATLLMFEWRPPS”, the protein production entry is “failed”.

As to “MIIFFLLIIIFLITALLFLLIKELHLSTASNYIMTIFLSLIILFIILKPEVCISASISGAKLFFFSVFPYVFPFLIITNLIICYDGIEIYSKLLGPILCLPQRLPKKASIVLMVSFLCGYPLGAKYAADLYENDIISFSTFERLVNIASNPGPLFIIGAVGTSMLKNKYLGYILLISCYLSCIAMGIILPNKKDDFSTKKTKWNVSEKHSIGTALKTSTENAVKVILQVMSFIIIFSVIIGILKQSVIFKNSEASFIKTFILGIVEMTNGSSMLSSSSFPIELKVITISFLSSFGGLCVIAQIYSFIGKYKISYLKFISLKVIQGVISSIICFLLFKFLYVNNTISTFNANNNFLSPSHFFTVAVILAVLPILIYKIKKTI”, the protein production entry is “failed”.

Consider “MGSSHHHHHHSSGRENLYFQGMTKNTRFSPEVRQRAVRMVLESQGEYDSQWATICSIAPKIGCTPETLRVWGRQHERDTGGGDGGLTTAERQRLKEPERENRELRRSNDILRQASAYFAKAEFDRLWKK”, for which the protein production entry was “not failed”. For the sequence “MRIAALFTCIIGVFMLATSVQAAQPADITRLSNGLTVLVLKDDRFPLASLRLYVHAGSAFETPEEAGISHLLEHMVFKGTVKRPKGQVARDVESVGGYLNAATSFDYTVYLTDMPSTQWKLGMDVLRDMAFEPALDPAELESEKDVVIAELQRGEDSPDSRIFQSLQAGTLKGTTYERPIIGYRETIRATTADTMRAYIRKHYQPQSMLLTVVGNVDPAEVRAEAERLFGGLTNDQNITPPAAIDARAFAHGPVVNVEHGPWKKVYLGVALPVPGLKALQAAQLDMLSQLLGGDPTALLYRTFKYEKQLVDDISVANYSFERVGMLYITAELDADKVETFWKELTTMLAGLKADAFTEQEFERARLNIEDGLYRSKETVAGLASKEGYFQFFSDGPQGEANYLQAVRDVERPQLEALIRDWLRPERLTVSVLLPEGTKAPALAATLKSTWPSKGKAAEEGNAAAVGKTETVDLGGGRKVVLIPDTTLPYTALDMVFSGGNALLDQNRQGLAALTASVLTKGTLKHDAPTLEAFQSDRAASLGASAGRRTFTLSLREPSRFDGDMFGLLHEVLTTPALAPDEVAREKRNQVASIRAREDQPLGLAFRHLTPFLFPGHSYGFYHLGQPETVEGFTRDDVKAFWARQAAQPWVMSVAGSFDREAVLRFAKSLPAPSGKPVSLDAPAWTPEKALDLRLPERNQAHLLLVFPTVGLAHKDTPALELLQSVLAGQSGLLFRDMRDKQGLGYTVTAMNWQSDLAGFMVLYIGTEPGKLEQAEAGFRKVIDQLHATALPDEELRRGKNQMRGDYYREHQRLGSRSSEAAMLTSQGYPLLFNREVIDKAEKLAPSDLERVARTYLDMNKVRVVKVLP”, the protein production entry is reported as “failed”. On to “IYGLVQRCVIIQKDDNGFGLTVSGDNPVFVQSVKEDGAAMRAGVQTGDRIIKVNGTLVTHSNHLEVVKLIKSGSYVALTVQGRPPGSPQIPLADSEVEPSVIGHMSPIMTSPHSPGASGNMERITSPVLMGEENNVVHNQK”, for which the protein production result is “failed”. For “MMTHYSDNTLKVAHQGFEFFTQGLATGEWQKFLDMLTEDFTFWFPMGEFHGLNVGKERAKEFFTYVSESFHTGIQISSLDRVTSNETTVVFEFRDEGLFLGKPYKNRVAVSFDVRGDKICSYREYFGSDGKSN”, the protein production result is given as “not failed”.

Take “MEQLAKLSMTDRLTGLLNRGTWENLVDAEYERFRRYGQATSLVMFDIDHFKPVNDTYGHLAGDEVIRHTADVTRNNIRQSDSAGRYGGEEFGIILPETDAESARVICERIREAIEKSTVSTSAGDIQYTVSMGIAQLTETPENYMQWMQKADEALYKAKESGRNKVVVSLEHHHHHH”: the protein production entry is on record as “not failed”. Consider “MYFLVTTLGVGFYLMKRMEKSEEDYLVAKRGLGAVPVGVTLALTVLGTPHILGVMESAYDIGLPAVWFSFAHAIMLAIVCLFTGRWARKLKVESVPEFLDVIFSNYWLRLMVGAVIAGAIFGICTLETQGLGVFVSILTGTSIEVGIVIGALIGILYVVLSGMKEVAWLNVLNAVILYIGIIAATFVLGSGLQNGWEGVNEFYISNDLAGKLNIFGSWEVFVGFALVNVLATVFFQGISQQGLHAALAAKSPDVLRKAMLIAVPVNGSFAVFAAVMGMAARATPEFAELGAKTATPAMIVSVLPTWASALLLATCLVAVLSSYAITLLAPTTIFVNDIYKAVLKPNASHEELLRLSRILTVLLAVAALIPAVSLPPILAAMMWLFSWLVPVFWFVIFGLFWKRSAPAAIITCLLVWVTINAWTMTPLPEVLGAPGWLHQVYLALIVTLVIGSLLNAVLPGKPGLFREKALAVRG”, for which the protein production result is recorded as “failed”. As for “MIARIPKDIPDLPAIPGMPVLMPSAVPAAAVVAPTRRPLTTAFRLLVALAATAGVTIDLILGSPLRVLTYFTIQSSVLVALTFTLSAWRAWAARRPLPALLTGGTLLYAVITGLVYHLLLAHEPAPFTMTGQAGPLTGWQALTNQLLHTAVPVAVVLDWLLLTGSGRLRLRQASAWLLYPLAYLALTLARGELILPGTPGRYLYPFLDVEQHGYKSVLGNALLLGLAFYALAVLLVTLDRVRPNPLRRRAKNGFRLQPPVG”, the protein production entry is on record as “failed”.
